B1: library; numbered along this chain (parent)
chain: MRKPRAAVGSGHRKQAASQEGRQKHAKNNSQAKPSACDGLARQPEEVVLQASVSSYHLFRDVAEVTAFRGSLLSWYDQEKRDLPWRRRAEDEMDLDRRAYAVWVSEVMLQQTQVATVINYYTGWMQKWPTLQDLASASLEEVNQLWAGLGYYSRGRRLQEGARKVVEELGGHMPRTAETLQQLLPGVGRYTAGAIASIAFGQATGVVDGNVARVLCRVRAIGADPSSTLVSQQLWGLAQQLVDPARPGDFNQAAMELGATVCTPQRPLCSQCPVESLCRARQRVEQEQLLASGSLSGSPDVEECAPNTGQCHLCLPPSEPWDQTLGVVNFPRKASRKPPREESSATCVLEQPGALGAQILLVQRPNSGLLAGLWEFPSVTWEPSEQLQRKALLQELQRWAGPLPATHLRHLGEVVHTFSHIKLTYQVYGLALEGQTPVTTVPPGARWLTQEEFHTAAVSTAMKKVFRVYQGQQPGTCMGSKRSQVSSPCSRKKPRMGQQVLDNFFRSHISTDAHSLNSAAQ

Variants of: B1
Test: 8OG:A repair function score (normalized; synonymous = 0, nonsense = -1) (normalized log-likelihood score); higher = more repair activity (WT-like)
Details: with 8OG:A DNA repair reporter (GFP) in HEK-293 MUTYH KO cells
How it was run: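 GFP+ (repair) and GFP− bins of viable mCherry+ cells were collected at 72 h from MUTYH knockout HEK-293 cells bearing lentiviral MUTYH cDNA NNN codon-scan libraries in 10 pg/ml doxycycline, co-transfected with an 8OG:A GFP repair reporter and mCherry. Tile amplicons were sequenced, and per-tile Rosace fitness scores were normalized to a repair function score anchored on synonymous and nonsense distributions. Synonymous medians were set to 0 and nonsense to -1, with variants under 300 counts per million at the start removed.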
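Also: cells sorted at 72 h after reporter transfection.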

Variant | 8OG:A repair function score
MRKPRAAVGSGHRKQAASQEGRQKHAKNNSQAKPSACDGLARQPEEVVLQASVSSYHLFRDVAEVTAFRGSLLSWYDQEKRDLPWRRRAEDEMDLDRRAYAVWVSEVMLQQTQVATVINYYTGWMQKWPTLQDLASASLEEVNQLWAGLGYYSRGRRLQEGARKVVEELGGHMPRTAETLQQLLPGVGRYTAGAIASIAFGQATGVVDGNVARVLCRVRAIGADPSSTLVSQQLWGLAQQLVDPARPGDFNQAAMELGATVCTPQRPLCSQCPVESLCRARQRVEQEQLLASGSLSGSPDVEECAPNTGQCHLCLPPSEPWDQTLGVVNFPRKASRKPPREESSATCVLEQPGALGAQILLVQRPNSGLLAGLWEFPSVTWEPSEQLQRKALLQELQRWAGPLPATHLRHLGEVVHTFSHIKLTYQVYGLALEGQTPVTTVPPGYRWLTQEEFHTAAVSTAMKKVFRVYQGQQPGTCMGSKRSQVSSPCSRKKPRMGQQVLDNFFRSHISTDAHSLNSAAQ [A445Y] | -0.693
MRKPRAAVGSGHRKQAASQEGRQKHAKNNSQAKPSACDGLARQPEEVVLQASVSSYHLFRDVAEVTAFRGSLLSWYDQEKRDLPWRRRAEDEMDLDRRAYAVWVSEVMLQQTQVATVINYYTGWMQKWPTLQDLASASLEEVNQLWAGLGYYSRGRRLQEGARKVVEELGGHMPRTAETLQQLLPGVGRYTAGAIASIAFGQATGVVDGNVARVLCRVRAIGADPSSTLVSQQLWGLAQQLVDPARPGDFNQAAMELGATVCTPQRPLCSQCPVESLCRARQRVEQEQLLASGSLSGSPDVEECAPNTGQCHLCLPPSEPWDQTLGVVNFPRKASRKPPREESSATCVLEQPGALGAQILLVQRPNSGLLAGLWEFPSVTWEPSEQLQRKALLQELQRWAGPLPATHLRHLGEVVHTFSHIKLTYQVYGLALEGQTPVTTVPPGWRWLTQEEFHTAAVSTAMKKVFRVYQGQQPGTCMGSKRSQVSSPCSRKKPRMGQQVLDNFFRSHISTDAHSLNSAAQ [A445W] | -0.606
MRKPRAAVGSGHRKQAASQEGRQKHAKNNSQAKPSACDGLARQPEEVVLQASVSSYHLFRDVAEVTAFRGSLLSWYDQEKRDLPWRRRAEDEMDLDRRAYAVWVSEVMLQQTQVATVINYYTGWMQKWPTLQDLASASLEEVNQLWAGLGYYSRGRRLQEGARKVVEELGGHMPRTAETLQQLLPGVGRYTAGAIASIAFGQATGVVDGNVARVLCRVRAIGADPSSTLVSQQLWGLAQQLVDPARPGDFNQAAMELGATVCTPQRPLCSQCPVESLCRARQRVEQEQLLASGSLSGSPDVEECAPNTGQCHLCLPPSEPWDQTLGVVNFPRKASRKPPREESSATCVLEQPGALGAQILLVQRPNSGLLAGLWEFPSVTWEPSEQLQRKALLQELQRWAGPLPATHLRHLGEVVHTFSHIKLTYQVYGLALEGQTPVTTVPPGAGWLTQEEFHTAAVSTAMKKVFRVYQGQQPGTCMGSKRSQVSSPCSRKKPRMGQQVLDNFFRSHISTDAHSLNSAAQ [R446G] | -0.67
MRKPRAAVGSGHRKQAASQEGRQKHAKNNSQAKPSACDGLARQPEEVVLQASVSSYHLFRDVAEVTAFRGSLLSWYDQEKRDLPWRRRAEDEMDLDRRAYAVWVSEVMLQQTQVATVINYYTGWMQKWPTLQDLASASLEEVNQLWAGLGYYSRGRRLQEGARKVVEELGGHMPRTAETLQQLLPGVGRYTAGAIASIAFGQATGVVDGNVARVLCRVRAIGADPSSTLVSQQLWGLAQQLVDPARPGDFNQAAMELGATVCTPQRPLCSQCPVESLCRARQRVEQEQLLASGSLSGSPDVEECAPNTGQCHLCLPPSEPWDQTLGVVNFPRKASRKPPREESSATCVLEQPGALGAQILLVQRPNSGLLAGLWEFPSVTWEPSEQLQRKALLQELQRWAGPLPATHLRHLGEVVHTFSHIKLTYQVYGLALEGQTPVTTVPPGAHWLTQEEFHTAAVSTAMKKVFRVYQGQQPGTCMGSKRSQVSSPCSRKKPRMGQQVLDNFFRSHISTDAHSLNSAAQ [R446H] | -0.177
MRKPRAAVGSGHRKQAASQEGRQKHAKNNSQAKPSACDGLARQPEEVVLQASVSSYHLFRDVAEVTAFRGSLLSWYDQEKRDLPWRRRAEDEMDLDRRAYAVWVSEVMLQQTQVATVINYYTGWMQKWPTLQDLASASLEEVNQLWAGLGYYSRGRRLQEGARKVVEELGGHMPRTAETLQQLLPGVGRYTAGAIASIAFGQATGVVDGNVARVLCRVRAIGADPSSTLVSQQLWGLAQQLVDPARPGDFNQAAMELGATVCTPQRPLCSQCPVESLCRARQRVEQEQLLASGSLSGSPDVEECAPNTGQCHLCLPPSEPWDQTLGVVNFPRKASRKPPREESSATCVLEQPGALGAQILLVQRPNSGLLAGLWEFPSVTWEPSEQLQRKALLQELQRWAGPLPATHLRHLGEVVHTFSHIKLTYQVYGLALEGQTPVTTVPPGAIWLTQEEFHTAAVSTAMKKVFRVYQGQQPGTCMGSKRSQVSSPCSRKKPRMGQQVLDNFFRSHISTDAHSLNSAAQ [R446I] | -0.193
MRKPRAAVGSGHRKQAASQEGRQKHAKNNSQAKPSACDGLARQPEEVVLQASVSSYHLFRDVAEVTAFRGSLLSWYDQEKRDLPWRRRAEDEMDLDRRAYAVWVSEVMLQQTQVATVINYYTGWMQKWPTLQDLASASLEEVNQLWAGLGYYSRGRRLQEGARKVVEELGGHMPRTAETLQQLLPGVGRYTAGAIASIAFGQATGVVDGNVARVLCRVRAIGADPSSTLVSQQLWGLAQQLVDPARPGDFNQAAMELGATVCTPQRPLCSQCPVESLCRARQRVEQEQLLASGSLSGSPDVEECAPNTGQCHLCLPPSEPWDQTLGVVNFPRKASRKPPREESSATCVLEQPGALGAQILLVQRPNSGLLAGLWEFPSVTWEPSEQLQRKALLQELQRWAGPLPATHLRHLGEVVHTFSHIKLTYQVYGLALEGQTPVTTVPPGAKWLTQEEFHTAAVSTAMKKVFRVYQGQQPGTCMGSKRSQVSSPCSRKKPRMGQQVLDNFFRSHISTDAHSLNSAAQ [R446K] | -0.277
MRKPRAAVGSGHRKQAASQEGRQKHAKNNSQAKPSACDGLARQPEEVVLQASVSSYHLFRDVAEVTAFRGSLLSWYDQEKRDLPWRRRAEDEMDLDRRAYAVWVSEVMLQQTQVATVINYYTGWMQKWPTLQDLASASLEEVNQLWAGLGYYSRGRRLQEGARKVVEELGGHMPRTAETLQQLLPGVGRYTAGAIASIAFGQATGVVDGNVARVLCRVRAIGADPSSTLVSQQLWGLAQQLVDPARPGDFNQAAMELGATVCTPQRPLCSQCPVESLCRARQRVEQEQLLASGSLSGSPDVEECAPNTGQCHLCLPPSEPWDQTLGVVNFPRKASRKPPREESSATCVLEQPGALGAQILLVQRPNSGLLAGLWEFPSVTWEPSEQLQRKALLQELQRWAGPLPATHLRHLGEVVHTFSHIKLTYQVYGLALEGQTPVTTVPPGADWLTQEEFHTAAVSTAMKKVFRVYQGQQPGTCMGSKRSQVSSPCSRKKPRMGQQVLDNFFRSHISTDAHSLNSAAQ [R446D] | -0.442
MRKPRAAVGSGHRKQAASQEGRQKHAKNNSQAKPSACDGLARQPEEVVLQASVSSYHLFRDVAEVTAFRGSLLSWYDQEKRDLPWRRRAEDEMDLDRRAYAVWVSEVMLQQTQVATVINYYTGWMQKWPTLQDLASASLEEVNQLWAGLGYYSRGRRLQEGARKVVEELGGHMPRTAETLQQLLPGVGRYTAGAIASIAFGQATGVVDGNVARVLCRVRAIGADPSSTLVSQQLWGLAQQLVDPARPGDFNQAAMELGATVCTPQRPLCSQCPVESLCRARQRVEQEQLLASGSLSGSPDVEECAPNTGQCHLCLPPSEPWDQTLGVVNFPRKASRKPPREESSATCVLEQPGALGAQILLVQRPNSGLLAGLWEFPSVTWEPSEQLQRKALLQELQRWAGPLPATHLRHLGEVVHTFSHIKLTYQVYGLALEGQTPVTTVPPGACWLTQEEFHTAAVSTAMKKVFRVYQGQQPGTCMGSKRSQVSSPCSRKKPRMGQQVLDNFFRSHISTDAHSLNSAAQ [R446C] | -0.342
MRKPRAAVGSGHRKQAASQEGRQKHAKNNSQAKPSACDGLARQPEEVVLQASVSSYHLFRDVAEVTAFRGSLLSWYDQEKRDLPWRRRAEDEMDLDRRAYAVWVSEVMLQQTQVATVINYYTGWMQKWPTLQDLASASLEEVNQLWAGLGYYSRGRRLQEGARKVVEELGGHMPRTAETLQQLLPGVGRYTAGAIASIAFGQATGVVDGNVARVLCRVRAIGADPSSTLVSQQLWGLAQQLVDPARPGDFNQAAMELGATVCTPQRPLCSQCPVESLCRARQRVEQEQLLASGSLSGSPDVEECAPNTGQCHLCLPPSEPWDQTLGVVNFPRKASRKPPREESSATCVLEQPGALGAQILLVQRPNSGLLAGLWEFPSVTWEPSEQLQRKALLQELQRWAGPLPATHLRHLGEVVHTFSHIKLTYQVYGLALEGQTPVTTVPPGAFWLTQEEFHTAAVSTAMKKVFRVYQGQQPGTCMGSKRSQVSSPCSRKKPRMGQQVLDNFFRSHISTDAHSLNSAAQ [R446F] | -0.449
MRKPRAAVGSGHRKQAASQEGRQKHAKNNSQAKPSACDGLARQPEEVVLQASVSSYHLFRDVAEVTAFRGSLLSWYDQEKRDLPWRRRAEDEMDLDRRAYAVWVSEVMLQQTQVATVINYYTGWMQKWPTLQDLASASLEEVNQLWAGLGYYSRGRRLQEGARKVVEELGGHMPRTAETLQQLLPGVGRYTAGAIASIAFGQATGVVDGNVARVLCRVRAIGADPSSTLVSQQLWGLAQQLVDPARPGDFNQAAMELGATVCTPQRPLCSQCPVESLCRARQRVEQEQLLASGSLSGSPDVEECAPNTGQCHLCLPPSEPWDQTLGVVNFPRKASRKPPREESSATCVLEQPGALGAQILLVQRPNSGLLAGLWEFPSVTWEPSEQLQRKALLQELQRWAGPLPATHLRHLGEVVHTFSHIKLTYQVYGLALEGQTPVTTVPPGAAWLTQEEFHTAAVSTAMKKVFRVYQGQQPGTCMGSKRSQVSSPCSRKKPRMGQQVLDNFFRSHISTDAHSLNSAAQ [R446A] | -0.143
MRKPRAAVGSGHRKQAASQEGRQKHAKNNSQAKPSACDGLARQPEEVVLQASVSSYHLFRDVAEVTAFRGSLLSWYDQEKRDLPWRRRAEDEMDLDRRAYAVWVSEVMLQQTQVATVINYYTGWMQKWPTLQDLASASLEEVNQLWAGLGYYSRGRRLQEGARKVVEELGGHMPRTAETLQQLLPGVGRYTAGAIASIAFGQATGVVDGNVARVLCRVRAIGADPSSTLVSQQLWGLAQQLVDPARPGDFNQAAMELGATVCTPQRPLCSQCPVESLCRARQRVEQEQLLASGSLSGSPDVEECAPNTGQCHLCLPPSEPWDQTLGVVNFPRKASRKPPREESSATCVLEQPGALGAQILLVQRPNSGLLAGLWEFPSVTWEPSEQLQRKALLQELQRWAGPLPATHLRHLGEVVHTFSHIKLTYQVYGLALEGQTPVTTVPPGALWLTQEEFHTAAVSTAMKKVFRVYQGQQPGTCMGSKRSQVSSPCSRKKPRMGQQVLDNFFRSHISTDAHSLNSAAQ [R446L] | -0.202
MRKPRAAVGSGHRKQAASQEGRQKHAKNNSQAKPSACDGLARQPEEVVLQASVSSYHLFRDVAEVTAFRGSLLSWYDQEKRDLPWRRRAEDEMDLDRRAYAVWVSEVMLQQTQVATVINYYTGWMQKWPTLQDLASASLEEVNQLWAGLGYYSRGRRLQEGARKVVEELGGHMPRTAETLQQLLPGVGRYTAGAIASIAFGQATGVVDGNVARVLCRVRAIGADPSSTLVSQQLWGLAQQLVDPARPGDFNQAAMELGATVCTPQRPLCSQCPVESLCRARQRVEQEQLLASGSLSGSPDVEECAPNTGQCHLCLPPSEPWDQTLGVVNFPRKASRKPPREESSATCVLEQPGALGAQILLVQRPNSGLLAGLWEFPSVTWEPSEQLQRKALLQELQRWAGPLPATHLRHLGEVVHTFSHIKLTYQVYGLALEGQTPVTTVPPGAEWLTQEEFHTAAVSTAMKKVFRVYQGQQPGTCMGSKRSQVSSPCSRKKPRMGQQVLDNFFRSHISTDAHSLNSAAQ [R446E] | -0.312
